Data from patent publication US11137400.

T1: Affinity-purified GST-tagged hXBP1s S288A mutant
T1 chain: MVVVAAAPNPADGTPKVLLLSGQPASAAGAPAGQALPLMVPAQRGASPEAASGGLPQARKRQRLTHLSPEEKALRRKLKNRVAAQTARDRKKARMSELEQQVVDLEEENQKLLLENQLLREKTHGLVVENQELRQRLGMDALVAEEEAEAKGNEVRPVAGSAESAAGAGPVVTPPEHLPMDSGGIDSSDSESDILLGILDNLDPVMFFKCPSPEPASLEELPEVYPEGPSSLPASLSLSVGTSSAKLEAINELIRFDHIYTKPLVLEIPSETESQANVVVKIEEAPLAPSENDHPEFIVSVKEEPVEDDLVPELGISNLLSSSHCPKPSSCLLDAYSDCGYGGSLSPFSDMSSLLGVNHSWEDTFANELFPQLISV

T2: Affinity-purified GST-tagged wild type (WT) hXBP1s
T2 chain: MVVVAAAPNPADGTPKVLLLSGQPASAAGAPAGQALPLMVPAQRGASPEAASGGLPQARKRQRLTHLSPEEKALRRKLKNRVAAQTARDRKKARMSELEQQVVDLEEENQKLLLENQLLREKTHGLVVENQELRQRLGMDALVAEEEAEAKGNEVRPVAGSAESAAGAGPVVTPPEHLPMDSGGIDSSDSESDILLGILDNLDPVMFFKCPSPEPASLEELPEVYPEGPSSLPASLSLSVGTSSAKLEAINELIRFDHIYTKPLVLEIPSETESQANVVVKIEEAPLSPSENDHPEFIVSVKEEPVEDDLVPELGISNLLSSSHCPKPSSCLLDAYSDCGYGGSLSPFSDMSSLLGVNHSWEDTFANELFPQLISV

T3: HA tagged hXBP1s (HA-hXBP1s), wild type, expressed in HEK293T cells
T3 chain: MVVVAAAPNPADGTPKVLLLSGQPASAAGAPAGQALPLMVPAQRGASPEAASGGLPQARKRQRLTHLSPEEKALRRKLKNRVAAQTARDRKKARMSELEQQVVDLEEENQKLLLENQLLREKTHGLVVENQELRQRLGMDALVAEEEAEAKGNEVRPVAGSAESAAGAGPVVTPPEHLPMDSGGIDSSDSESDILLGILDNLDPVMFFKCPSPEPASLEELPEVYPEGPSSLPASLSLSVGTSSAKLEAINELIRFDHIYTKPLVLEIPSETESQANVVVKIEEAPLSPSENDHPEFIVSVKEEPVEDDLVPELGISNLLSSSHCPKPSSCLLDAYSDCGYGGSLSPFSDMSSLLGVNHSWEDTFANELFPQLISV


Experiments:
[1] = molecular target: T1, Affinity-purified GST-tagged hXBP1s …
[2] = molecular target: T2, Affinity-purified GST-tagged wild type …
[3] = molecular target: T3, HA tagged hXBP1s (HA-hXBP1s), wild …

Protein | in vitro kinase assay, phosphorylation in the presence of ^32P (autoradiography) [1] | in vitro kinase assay, phosphorylation in the presence of ^32P (autoradiography) [2] | ubiquitination assay (conjugation of MYC-Ub to HA-hXBP1s, anti-HA immunoprecipitation probed with anti-MYC) [3]
Active recombinant human JNK1α1 (Millipore) (protein) MSRSKRDNNFYSVEIGDSTFTVLKRYQNLKPIGSGAQGIVCAAYDAILERNVAIKKLSRPFQNQTHAKRAYRELVLMKCVNHKNIIGLLNVFTPQKSLEEFQDVYIVMELMDANLCQVIQMELDHERMSYLLYQMLCGIKHLHSAGIIHRDLKPSNIVVKSDCTLKILDFGLARTAGTSFMMTPYVVTRYYRAPEVILGMGYKENVDLWSVGCIMGEMVCHKILFPGRDYIDQWNKVIEQLGTPCPEFMKKLQPTVRTYVENRPKYAGYSFEKLFPDVLFPADSEHNKLKASQARDLLSKMLVIDASKRISVDEALQHPYINVWYDPSEAEAPPPKIPDKQLDEREHTIEEWKELIYKEVMDLEERTKNGVIRGQPSPLAQVQQ | mutation of Ser288 to A abolished JNKs-mediated phosphorylation of hXBP1s | JNK1, JNK2 or JNK3 was sufficient to directly phosphorylate hXBP1s | 
Active recombinant human JNK3 (Millipore) (protein) MSLHFLYYCSEPTLDVKIAFCQGFDKQVDVSYIAKHYNMSKSKVDNQFYSVEVGDSTFTVLKRYQNLKPIGSGAQGIVCAAYDAVLDRNVAIKKLSRPFQNQTHAKRAYRELVLMKCVNHKNIISLLNVFTPQKTLEEFQDVYLVMELMDANLCQVIQMELDHERMSYLLYQMLCGIKHLHSAGIIHRDLKPSNIVVKSDCTLKILDFGLARTAGTSFMMTPYVVTRYYRAPEVILGMGYKENVDIWSVGCIMGEMVRHKILFPGRDYIDQWNKVIEQLGTPCPEFMKKLQPTVRNYVENRPKYAGLTFPKLFPDSLFPADSEHNKLKASQARDLLSKMLVIDPAKRISVDDALQHPYINVWYDPAEVEAPPPQIYDKQLDEREHTIEEWKELIYKEVMNSEEKTKNGVVKGQPSPSGAAVNSSESLPPSSSVNDISSMSTDQTLASDTDSSLEASAGPLGCCR | mutation of Ser288 to A abolished JNKs-mediated phosphorylation of hXBP1s | JNK1, JNK2 or JNK3 was sufficient to directly phosphorylate hXBP1s | 
FLAG-β-TrCP1, expressed in HEK293T cells (protein) MDPAEAVLQEKALKFMCSMPRSLWLGCSSLADSMPSLRCLYNPGTGALTAFQNSSEREDCNNGEPPRKIIPEKNSLRQTYNSCARLCLNQETVCLASTAMKTENCVAKTKLANGTSSMIVPKQRKLSASYEKEKELCVKYFEQWSESDQVEFVEHLISQMCHYQHGHINSYLKPMLQRDFITALPARGLDHIAENILSYLDAKSLCAAELVCKEWYRVTSDGMLWKKLIERMVRTDSLWRGLAERRGWGQYLFKNKPPDGNAPPNSFYRALYPKIIQDIETIESNWRCGRHSLQRIHCRSETSKGVYCLQYDDQKIVSGLRDNTIKIWDKNTLECKRILTGHTGSVLCLQYDERVIITGSSDSTVRVWDVNTGEMLNTLIHHCEAVLHLRFNNGMMVTCSKDRSIAVWDMASPTDITLRRVLVGHRAAVNVVDFDDKYIVSASGDRTIKVWNTSTCEFVRTLNGHKRGIACLQYRDRLVVSGSSDNTIRLWDIECGACLRVLEGHEELVRCIRFDNKRIVSGAYDGKIKVWDLVAALDPRAPAGTLCLRTLVEHSGRVFRLQFDEFQIVSSSHDDTILIWDFLNDPAAQAEPPRSPSRTYTYISR |  |  | ectopically expressed β-TrCP greatly promoted the conjugation of ubiquitin to HA-hXBP1s
